Experimental data from patent publication CN113583115A (YANG SHENG TANG CO LTD; UNIV XIAMEN, dated 2021).
Substitutions are numbered along the chain they refer to.

B1: 3F4人源化抗体 (VH SEQ ID NO:15 + VL SEQ ID NO:19) (antibody, V domains shown)
VH: EVQLVESGGGLVQPGGSLRLSCAASGFSLSSYWMSWVRQAPGKGLEWVSIIFTGGSTYYASWAKGRFTISRHNSKNTLYLQMNSLRAEDTAVYYCARTSYYDVSGWGVGRLDLWGQGTLVTVSS
VL: DIQMTQSPSTLSASVGDRVTITCQSSQSVYDNNWLGWYQQKPGKAPKLLIYSASTLASGVPSRFSGSGSGTEFTLTISSLQPDDFATYYCAGGYSGNIFAFGQGTKLEILR
B2: 3F4人源化抗体 (VH SEQ ID NO:18 + VL SEQ ID NO:19) (antibody, V domains shown)
VH: B1 VH with A23T, A24V
VL: B1 VL
B3: 3F4人源化抗体 (VH SEQ ID NO:17 + VL SEQ ID NO:19) (antibody, V domains shown)
VH: B1 VH with V92T, Y94F
VL: B1 VL
B4: 3F4人源化抗体 (VH SEQ ID NO:16 + VL SEQ ID NO:19) (antibody, V domains shown)
VH: B1 VH with V48I, S49G
VL: B1 VL
B5: 兔源单克隆抗体3F4 (antibody, V domains shown)
VH: QSVKESGGRLVTPGTPLTLTCTVSGFSLSSYWMSWVRQAPGKGLEWIGIIFTGGSTYYASWAKGRFTISKTSTTVDLKITSPTTEDTATYFCARTSYYDVSGWGVGRLDLWGQGTLVTVSS
VL: DPMLTQTASSVSAAVGGTVTISCQSSQSVYDNNWLGWYQQKPGQPPKLLIYSASTLASGVPSRFKGSGSGTQFTLTISDLECDDAATYYCAGGYSGNIFAFGGGTELEIL
notes: also called r3F4

Legend:
SARS-CoV-2受体结合区RBD-His蛋白 [1] = molecular target: T1, SARS-CoV-2受体结合区RBD-His蛋白 (SARS-CoV-2, UniProt P0DTC2 316-550); test: indirect ELISA, RBD-His coated at 2 μg/mL, HRP goat anti-human IgG
T1 construct: range 316-550

SARS-CoV-2受体结合区RBD-mFc = molecular target: T2, SARS-CoV-2受体结合区RBD-mFc (SARS-CoV-2, UniProt P0DTC2 319-541); test: indirect ELISA, RBD-mFc coated at 2 μg/mL, HRP goat anti-rabbit IgG
T2 construct: domain: 受体结合区RBD

[2] = molecular target: SARS-CoV-2 Sde18截短蛋白 (假病毒SARS-CoV2 VSVpp所携带) (SARS-CoV-2, UniProt P0DTC2 14-1255); test: cell-based or functional assay
SARS-CoV-2受体结合区RBD-His蛋白 [3] = molecular target: T1, SARS-CoV-2受体结合区RBD-His蛋白

Binder	binding result (SARS-CoV-2受体结合区RBD-His蛋白 [1])	EC50 (SARS-CoV-2受体结合区RBD-mFc)	IC50 (SARS-CoV2 VSVpp假病毒感染模型中和, BHK21-hACE2细胞) [2]	Kd (SARS-CoV-2受体结合区RBD-His蛋白 [3])
B1	binds			
B2	binds			
B3	binds			
B4	binds			
B5		0.0144 µg/mL	1.95 ng/mL	8.79 nM
